Here are results for one substance from patent US20250215105A1, “ANTI-CD39 ANTIBODY” (BrightPath Biotherapeutics Co., Ltd., priority 2022, published 2025).

As a reminder, the Kd is the free concentration of one partner at which half of the binding sites on the other are occupied at equilibrium, for simple one-to-one binding. A low value points to higher affinity.

The assay concerns the target FcγRIIIa (Human) (UniProt P08637). As to the kind of experiment: SPR.

Sequence of FcγRIIIa (Human) (P08637 17-208 F176V): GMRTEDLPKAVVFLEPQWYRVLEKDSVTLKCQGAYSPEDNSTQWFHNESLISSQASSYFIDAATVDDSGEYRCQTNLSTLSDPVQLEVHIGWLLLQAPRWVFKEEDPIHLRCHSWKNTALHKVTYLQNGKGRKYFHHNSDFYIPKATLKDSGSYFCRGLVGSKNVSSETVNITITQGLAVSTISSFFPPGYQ

On to Mogamulizumab, for which the Kd is 0.156 µM.
